In paper PMC3768570 (Brazilian Journal of Microbiology, 2009):

Legend:
[1] = system: Saccharomyces cerevisiae phytase; assay: phosphate release, ammonium molybdate, Lineweaver-Burk; type: biochemical; details: pH 5.0, 37°C, 100 mM sodium acetate; InsP3 prepared with S. cerevisiae phytase
[2] = biological target: T1, phytase from Aspergillus niger 11T53A9 (Aspergillus niger, UniProt P34752); assay: biochemical
T1 sequence (P34752 24-467): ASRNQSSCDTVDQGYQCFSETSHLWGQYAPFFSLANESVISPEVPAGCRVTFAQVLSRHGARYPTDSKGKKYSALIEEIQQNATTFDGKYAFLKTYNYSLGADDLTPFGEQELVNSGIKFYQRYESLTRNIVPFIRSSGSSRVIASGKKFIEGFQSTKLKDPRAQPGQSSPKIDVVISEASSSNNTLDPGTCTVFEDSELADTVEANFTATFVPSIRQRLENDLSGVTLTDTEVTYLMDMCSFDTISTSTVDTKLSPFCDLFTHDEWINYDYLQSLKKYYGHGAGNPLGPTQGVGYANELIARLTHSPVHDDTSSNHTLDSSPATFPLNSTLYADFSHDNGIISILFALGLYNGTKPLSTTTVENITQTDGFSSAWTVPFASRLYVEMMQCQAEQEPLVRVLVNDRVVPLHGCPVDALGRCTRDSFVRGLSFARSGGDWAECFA

purified protein [3] = substrate: Nc1ncnc2c1ncn2[C@@H]1O[C@H](COP(=O)(O)O)[C@@H](O)[C@H]1O; assay: purified protein; details: pH 5.0, 37°C, 100 mM sodium acetate
purified protein [4] = substrate: Nc1ncnc2c1ncn2[C@@H]1O[C@H](COP(=O)(O)OP(=O)(O)O)[C@@H](O)[C@H]1O; assay: purified protein; details: pH 5.0, 37°C, 100 mM sodium acetate
purified protein [5] = substrate: Nc1ncnc2c1ncn2[C@@H]1O[C@H](COP(=O)(O)OP(=O)(O)OP(=O)(O)O)[C@@H](O)[C@H]1O; assay: purified protein; details: pH 5.0, 37°C, 100 mM sodium acetate
purified protein [6] = substrate: O=P(O)(O)OC(CO)CO; assay: purified protein; details: pH 5.0, 37°C, 100 mM sodium acetate
purified protein [7] = substrate: O=P(O)(O)O[C@H]1O[C@H](CO)[C@@H](O)[C@H](O)[C@H]1O; assay: purified protein; details: pH 5.0, 37°C, 100 mM sodium acetate
purified protein [8] = substrate: O=P(O)(O)O[C@H]1[C@H](OP(=O)(O)O)[C@@H](OP(=O)(O)O)[C@H](OP(=O)(O)O)[C@@H](OP(=O)(O)O)[C@H]1OP(=O)(O)O; assay: purified protein; details: pH 5.0, 37°C, 100 mM sodium acetate
purified protein [9] = substrate: O=P(O)(O)Oc1ccc2ccccc2c1; assay: purified protein; details: pH 5.0, 37°C, 100 mM sodium acetate
purified protein [10] = substrate: O=P(O)(O)Oc1cccc2ccccc12; assay: purified protein; details: pH 5.0, 37°C, 100 mM sodium acetate
purified protein [11] = substrate: O=P(O)(O)Oc1ccccc1; assay: purified protein; details: pH 5.0, 37°C, 100 mM sodium acetate
purified protein [12] = substrate: O=[N+]([O-])c1ccc(OP(=O)(O)O)cc1; assay: purified protein; details: pH 5.0, 37°C, 100 mM sodium acetate

## O=P(O)(O)O[C@@H]1[C@H](OP(=O)(O)O)[C@H](O)[C@@H](O)[C@H](O)[C@H]1OP(=O)(O)O [D-Ins(1,2,6)P3]
[1]
  Km: 293 ± 12 µM

## F [Fluoride]
[2]
  Ki: 158 µM

B1: phytase from Aspergillus niger 11T53A9 (Aspergillus niger) (protein)
chain: T1 sequence (P34752 24-467)
Purified protein [3]
  Km: 497 ± 8.2 µM
  kcat: 11 ± 1.1 s⁻¹
  kcat/Km: 22100 M⁻¹ s⁻¹
Purified protein [4]
  Km: 534 ± 7.9 µM
  kcat: 12 ± 0.9 s⁻¹
  kcat/Km: 22500 M⁻¹ s⁻¹
Purified protein [5]
  Km: 587 ± 6.5 µM
  kcat: 8 s⁻¹
  kcat/Km: 13600 M⁻¹ s⁻¹
Purified protein [6]
  Km: 521 ± 9.1 µM
  kcat: 9 ± 0.3 s⁻¹
  kcat/Km: 17300 M⁻¹ s⁻¹
Purified protein [7]
  Km: 741 ± 6.4 µM
  kcat: 6 ± 0.4 s⁻¹
  kcat/Km: 8100 M⁻¹ s⁻¹
Purified protein [8]
  Km: 54 ± 1.4 µM
  kcat: 190 ± 4.3 s⁻¹
  kcat/Km: 3.52e+06 M⁻¹ s⁻¹
Purified protein [9]
  Km: 276 ± 7.1 µM
  kcat: 22 s⁻¹
  kcat/Km: 79700 M⁻¹ s⁻¹
Purified protein [10]
  Km: 247 ± 6.7 µM
  kcat: 23 ± 1.5 s⁻¹
  kcat/Km: 93100 M⁻¹ s⁻¹
Purified protein [11]
  Km: 177 ± 1.3 µM
  kcat: 36 s⁻¹
  kcat/Km: 203000 M⁻¹ s⁻¹
Purified protein [12]
  Km: 124 ± 3.9 µM
  kcat: 35 ± 0.9 s⁻¹
  kcat/Km: 282000 M⁻¹ s⁻¹
